According to patent US20250282879A1 (CILAG GMBH INTERNATIONAL, published 2025):

T1: human IL-31-His (human, UniProt Q6EBC2 24-164)
T1 construct: captured via an anti-His tag antibody; also called human IL-31 (scFv SPR); not shown: His tag
T1 sequence (looked up): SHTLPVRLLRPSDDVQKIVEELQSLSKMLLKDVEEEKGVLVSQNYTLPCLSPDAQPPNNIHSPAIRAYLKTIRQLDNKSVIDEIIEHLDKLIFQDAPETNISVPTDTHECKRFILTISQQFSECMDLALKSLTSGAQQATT


Molecular target: T1, human IL-31-His
Experiment: SPR, IL-31-His captured, scFv analyte (30 and 10 nM)
Method: Affinity of the two humanized scFvs to human and cynomolgus IL-31 was determined by SPR analysis on a T200 device (Biacore, GE Healthcare). Cynomolgus IL-31 was manufactured on demand by Sino Biological since it was not available commercially. Human and cynomolgus IL-31-His was captured via an anti-His tag antibody coupled to a carboxylmethylated dextran surface and the scFvs were injected as analyte. After each analyte injection cycle the sensor chip was regenerated and new antigen was captured. The scFvs were measured using a dose response multi-cycle kinetic assay in a high-throughput mode with two concentrations (30 and 10 nM) diluted in running buffer. Obtained sensorgrams were fitted using a 1:1 binding model.
Affinity of PRO1643 and of the optimized anti-IL-31 scFvs to human IL-31 was determined by SPR analysis on a T200 device (Biacore, GE Healthcare), as described above in section 2.2.2. The scFvs were measured using a dose response multi-cycle kinetic assay in a high-throughput mode with two concentrations (30 and 10 nM) diluted in running buffer. Obtained sensorgrams were fitted using a 1:1 binding model.

Row | Kd | koff | kon | Binder
1 | 0.907 nM | 0.000599 s⁻¹ | 661000 M⁻¹ s⁻¹ | PRO1900 (scFv, V domains shown, anti-IL-31 scFv; VL entry ends with LCDR3 (no FR4); also called 50-09-D07-sc04) VH: QSQLVESGGGRVQPGGSLRLSCAASGFSFSANYWICWVRQAPGKGLEWIVCIYIGSRADTYYAPWAKGRFTISKDNSKNTVYLQMNSLRAEDTATYFCARFSSGIYDLDRFFLWGQGTQVTVSS V domain: AFQLTQSPSSLSASVGDRVTITCQASQSIDSWLAWYQQKPGKPPKLLIYQASKLASGVPSRFSGSGSGTDYTLTISSLQPEDFATYYCQTYYGGGHIGWGFGTGTKVTV
2 | 1.22 nM | 0.000638 s⁻¹ | 524000 M⁻¹ s⁻¹ | PRO1903 (scFv, V domains shown, anti-IL-31 scFv (VL D32E against sc03); Printed VL entry has no FR4; also called 50-09-D07-sc07) VH: QSQLVESGGGLVQPGGSLRLSCAASGFSFSANYWICWVRQAPGKGLEWIVCIYIGSRADTYYAPWAKGRFTISKDNSKNTVYLQMNSLRAEDTAVYFCARFSSGIYDLDRFFLWGQGTLVTVSS V domain: AFQLTQSPSSLSASVGDRVTITCQASQSIESWLAWYQQKPGKPPKLLIYQASKLASGVPSRFSGSGSGTDYTLTISSLQPEDFATYYCQTYYGGGHIGWGFGTGTKVTV
